Binding result and response data for eight molecules are collected here from PMC7960543 (The Journal of Biological Chemistry, 2021).

Sequences and labels used below:
B3: recombinant soluble CD40L (residues 118–261) with no N-terminal KGD motif, wild type (ligand)
chain: QNPQIAAHVISEASSKTTSVLQWAEKGYYTMSNNLVTLENGKQLTVKRQGLYYIYAQVTFCSNREASSQAPFIASLCLKSPGRFERILLRAANTHSSAKPCGQQSIHLGGVFELQPGASVFVNVTDPSQVSHGTGFTSFGLLKL
notes: CD40L (CD40 ligand), residues 118–261, without the KGD motif (residues 115–117); the His tag is known from detection with anti-His antibody; also called sCD40L; WT sCD40L; source: recombinant, synthesized as described (13)
B7: CD40 fragment (residues 21–144) fused to GST (domain or fragment, UniProt P25942 21-144, looked up)
chain: EPPTACREKQYLINSQCCSLCQPGQKLVSDCTEFTETECLPCGESEFLDTWNRETHCHQHKYCDPNLGLRVQQKGTSETDTICTCEEGWHCTSEACESCVLHRSCSPGFGVKQIATGVSDTICE
notes: also called CD40 fused to GST

Bridge positions count the residues as written; N and C are the ends. Ends that are not written are not given here.

Test [1] has as its target B3. In words: ELISA; CD40L immobilized; cyclic site 2 peptides of β1 or β3 fused to GST in solution; bound GST measured with HRP-conjugated anti-GST. The note with it: both partners purified.
The target of test [2] is T1, recombinant soluble integrin αvβ3, P06756;P05106.
T1 chain 1: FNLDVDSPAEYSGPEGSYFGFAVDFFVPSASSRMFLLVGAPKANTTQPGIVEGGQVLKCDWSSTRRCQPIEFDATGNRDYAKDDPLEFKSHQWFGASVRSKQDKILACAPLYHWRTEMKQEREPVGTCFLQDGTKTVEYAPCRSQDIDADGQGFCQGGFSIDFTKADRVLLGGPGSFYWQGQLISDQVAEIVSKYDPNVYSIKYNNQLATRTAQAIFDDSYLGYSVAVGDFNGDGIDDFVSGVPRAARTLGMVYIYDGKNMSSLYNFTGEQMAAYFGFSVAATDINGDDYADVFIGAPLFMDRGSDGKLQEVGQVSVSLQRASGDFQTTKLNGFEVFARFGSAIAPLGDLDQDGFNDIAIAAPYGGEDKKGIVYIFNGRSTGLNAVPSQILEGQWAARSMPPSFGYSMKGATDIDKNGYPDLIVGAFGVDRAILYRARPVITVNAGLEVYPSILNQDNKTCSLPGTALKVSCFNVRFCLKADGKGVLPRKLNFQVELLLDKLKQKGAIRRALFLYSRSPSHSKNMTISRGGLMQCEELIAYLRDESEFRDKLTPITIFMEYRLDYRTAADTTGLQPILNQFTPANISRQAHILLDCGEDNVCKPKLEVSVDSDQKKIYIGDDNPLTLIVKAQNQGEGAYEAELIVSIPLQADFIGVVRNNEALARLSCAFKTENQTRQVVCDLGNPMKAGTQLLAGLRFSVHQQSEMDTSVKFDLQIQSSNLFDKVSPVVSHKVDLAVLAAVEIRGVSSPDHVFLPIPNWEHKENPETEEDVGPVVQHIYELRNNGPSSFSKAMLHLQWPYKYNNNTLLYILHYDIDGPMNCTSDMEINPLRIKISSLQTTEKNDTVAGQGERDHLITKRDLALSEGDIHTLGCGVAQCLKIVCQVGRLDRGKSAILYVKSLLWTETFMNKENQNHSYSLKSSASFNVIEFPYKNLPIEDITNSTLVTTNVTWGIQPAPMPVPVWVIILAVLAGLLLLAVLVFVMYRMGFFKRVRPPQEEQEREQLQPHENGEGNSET
T1 chain 2: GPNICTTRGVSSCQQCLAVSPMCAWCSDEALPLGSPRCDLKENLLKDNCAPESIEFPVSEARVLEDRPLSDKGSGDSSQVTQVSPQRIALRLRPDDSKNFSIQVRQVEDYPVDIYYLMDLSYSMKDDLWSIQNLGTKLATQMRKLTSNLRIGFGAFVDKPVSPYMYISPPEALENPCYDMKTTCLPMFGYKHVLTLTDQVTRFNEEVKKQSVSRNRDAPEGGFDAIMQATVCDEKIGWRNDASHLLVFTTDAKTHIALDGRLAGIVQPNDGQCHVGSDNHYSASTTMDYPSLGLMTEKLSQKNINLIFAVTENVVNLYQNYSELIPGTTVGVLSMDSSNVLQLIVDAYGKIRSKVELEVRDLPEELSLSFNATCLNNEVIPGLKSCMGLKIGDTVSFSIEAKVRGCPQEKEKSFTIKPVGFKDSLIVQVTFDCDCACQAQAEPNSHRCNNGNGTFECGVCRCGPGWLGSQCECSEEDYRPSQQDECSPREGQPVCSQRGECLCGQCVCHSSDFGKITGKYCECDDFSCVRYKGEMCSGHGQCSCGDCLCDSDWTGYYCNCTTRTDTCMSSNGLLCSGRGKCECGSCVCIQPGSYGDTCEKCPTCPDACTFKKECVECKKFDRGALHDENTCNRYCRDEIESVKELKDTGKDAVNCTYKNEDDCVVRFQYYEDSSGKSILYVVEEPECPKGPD
Briefly: ELISA. The note with it: chain shown with the change; immobilized CD40L mutants 10 μg/ml; soluble αvβ3 5 μg/ml in HEPES-Tyrodes buffer, 1 mM Mn2+; detection with anti-β3 (AV10); parent: est. 0.48; read off a plot. For orientation: In an ELISA, binding on a coated surface is turned into a signal by an enzyme label.

The target of test [3] is B7. In words: ELISA; CD40 fragment (21–144) fused to GST coated on wells (100 μg/ml in PBS); sCD40L (WT or mutant) incubated 1 h; bound sCD40L measured with HRP-conjugated anti-His. Conditions: both partners purified.
Test [4] deals with T2, sCD40L (residues 118–261) L155P HIGM1 mutant (UniProt P29965 118-261, L155P).
T2 construct: CD40L residues 118–261; HIGM1 mutation; source: recombinant, site-directed mutagenesis of WT sCD40L, synthesized as for WT
T2 sequence (looked up): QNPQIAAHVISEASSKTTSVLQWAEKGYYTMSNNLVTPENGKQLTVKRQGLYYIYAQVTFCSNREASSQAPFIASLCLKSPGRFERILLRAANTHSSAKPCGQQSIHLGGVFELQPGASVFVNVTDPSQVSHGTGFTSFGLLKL
The description is as above. The note with it: both partners purified.

The target of test [5] is T3, sCD40L (residues 118–261) K143T HIGM1 mutant (UniProt P29965 118-261, K143T).
T3 construct: CD40L residues 118–261; HIGM1 mutation; source: recombinant, site-directed mutagenesis of WT sCD40L, synthesized as for WT
T3 sequence (looked up): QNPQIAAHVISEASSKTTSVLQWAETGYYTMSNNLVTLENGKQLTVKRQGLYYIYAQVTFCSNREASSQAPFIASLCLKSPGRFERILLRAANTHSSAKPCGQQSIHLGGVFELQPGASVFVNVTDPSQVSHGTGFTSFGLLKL
Described as above. Conditions: both partners purified.

Test [6] concerns the target T4, sCD40L (residues 118–261) S128R/E129G HIGM1 mutant (UniProt P29965 118-261, S128R | E129G).
T4 construct: CD40L residues 118–261; HIGM1 (hyper-IgM syndrome type 1) mutation; source: recombinant, site-directed mutagenesis of WT sCD40L, synthesized as for WT
T4 sequence (looked up): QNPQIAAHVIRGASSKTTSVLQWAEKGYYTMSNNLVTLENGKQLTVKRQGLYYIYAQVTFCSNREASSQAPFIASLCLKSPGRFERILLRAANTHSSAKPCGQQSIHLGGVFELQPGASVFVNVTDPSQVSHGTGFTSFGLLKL
The description is as above. Conditions: both partners purified.

The target of test [7] is T5, sCD40L (residues 118–261) G144E HIGM1 mutant (UniProt P29965 118-261, G144E).
T5 construct: CD40L residues 118–261; HIGM1 mutation; source: recombinant, site-directed mutagenesis of WT sCD40L, synthesized as for WT
T5 sequence (looked up): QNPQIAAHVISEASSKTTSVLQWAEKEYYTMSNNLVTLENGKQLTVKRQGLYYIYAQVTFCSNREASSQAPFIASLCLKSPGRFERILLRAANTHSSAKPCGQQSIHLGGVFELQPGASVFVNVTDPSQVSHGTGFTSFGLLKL
The test is described as above. Conditions: both partners purified.

B1: disulfide-linked cyclic site 2 peptide of integrin β3 (C260–C288) fused to GST (peptide)
peptide: CRLAGIVQPNDGQSHVGSDNHYSASTTMC
modifications: disulfide 1-29; also: fused to GST
notes: also called cyclic site 2 peptide from β3; 29-mer cyclic β3 peptide
As for B1, the binding result in test [1] was “binds”.

B2: recombinant soluble CD40L (residues 118–261) with no N-terminal KGD motif, wild type S128R; E129G (protein)
chain: QNPQIAAHVIRGASSKTTSVLQWAEKGYYTMSNNLVTLENGKQLTVKRQGLYYIYAQVTFCSNREASSQAPFIASLCLKSPGRFERILLRAANTHSSAKPCGQQSIHLGGVFELQPGASVFVNVTDPSQVSHGTGFTSFGLLKL
In the case of B2, the response in test [2] is 0.046 OD450.
In the case of B3, the binding result in test [3] is reported as “binds”.

B4: recombinant soluble CD40L (residues 118–261) with no N-terminal KGD motif, wild type L155P (protein)
chain: QNPQIAAHVISEASSKTTSVLQWAEKGYYTMSNNLVTPENGKQLTVKRQGLYYIYAQVTFCSNREASSQAPFIASLCLKSPGRFERILLRAANTHSSAKPCGQQSIHLGGVFELQPGASVFVNVTDPSQVSHGTGFTSFGLLKL
In the case of B4, the response in test [2] turned out to be 0.042 OD450.

B5: recombinant soluble CD40L (residues 118–261) with no N-terminal KGD motif, wild type G144E (protein)
chain: QNPQIAAHVISEASSKTTSVLQWAEKEYYTMSNNLVTLENGKQLTVKRQGLYYIYAQVTFCSNREASSQAPFIASLCLKSPGRFERILLRAANTHSSAKPCGQQSIHLGGVFELQPGASVFVNVTDPSQVSHGTGFTSFGLLKL
Take B5: the response in test [2] stood at 0.4 OD450.

B6: recombinant soluble CD40L (residues 118–261) with no N-terminal KGD motif, wild type K143T (protein)
chain: QNPQIAAHVISEASSKTTSVLQWAETGYYTMSNNLVTLENGKQLTVKRQGLYYIYAQVTFCSNREASSQAPFIASLCLKSPGRFERILLRAANTHSSAKPCGQQSIHLGGVFELQPGASVFVNVTDPSQVSHGTGFTSFGLLKL
B6: the response in test [2] came out at 0.33 OD450.
As to B7, the binding result in test [4], in test [5], in test [6] and in test [7] was “binds” each time.

B8: disulfide-linked cyclic site 2 peptide of integrin β1 (C268–C295) fused to GST (peptide)
peptide: CKLGGIVLPNDGQSHLENNMYTMSHYYC
modifications: disulfide 1-28; also: fused to GST
notes: integrin β1 residues 268–295 (site 2); Cloned in pGEX-2T6His; also called the corresponding β1 peptide; 28-mer cyclic β1 peptide
Take B8: in test [1], the binding result was “binds”.
